Numbered stars: 1 amine (or outer) side, 2 acyl side, 3 side chain; on linkers, the order of the positions; unused ones are H or OH. Square brackets hold non-standard residues; d marks the D form. Ends that are not written are not given here. Lys(Me3) = C[N+](C)(C)CCCC[C@H](N)C(=O)O; Ethylenediamine = C(CN[*:2])N[*:1]; 5‑FAM = fluorescent label
Biological target: T1, E. coli expressed BAHD1(aa:588-780) (UniProt Q8TBE0 588-780)
T1 chain: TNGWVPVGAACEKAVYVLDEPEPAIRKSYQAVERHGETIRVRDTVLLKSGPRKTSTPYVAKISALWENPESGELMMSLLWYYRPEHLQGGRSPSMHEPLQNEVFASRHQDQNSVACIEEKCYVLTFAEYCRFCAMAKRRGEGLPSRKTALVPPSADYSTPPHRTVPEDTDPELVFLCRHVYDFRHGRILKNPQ
Experiment: FP

PRKQLATKAAR[Lys(Me3)]SAPATGG-{Ethylenediamine-4‑Abu-5‑FAM} [H3 16-35 K27me3 peptide]
Kd: 700 nM

Reference: publication doi:10.1101/2022.07.22.501112 (2022)
